The values below come from the supplement of paper PMC12764529.

Series [1] is described as follows: folding stability dG unfold from chymotrypsin proteolysis; higher = more stable. How it is done:
(§1)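 Folding stability of de novo designed mini-proteins (<80 aa, no Cys; designed by TrROS, TrMRF, ProteinMPNN and the joint model) was measured by cDNA display proteolysis with trypsin and chymotrypsin. Each protease was used at 11 concentrations in a threefold dilution series plus a no-protease condition. K50 was inferred by Bayesian fitting of sequencing counts, and dG unfold was derived against a sequence-predicted unfolded-state K50 (Tsuboyama et al. method). Sequences shown include variable-length N-terminal GS-type padding (SAGGSAGG...) inside a display construct carrying a PA tag. Rows were kept only if the AF2 dimer inter-PAE was >15, to exclude likely homo-oligomers.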

A short description of series [2]: folding stability dG unfold (combined trypsin and chymotrypsin); higher = more stable. As for the experimental part: as §1

± gives the half width of the 95% confidence interval. A value given as a limit tells only on which side of the number the result lay.

With “QIPPGAKVEFGNKEIEVPPGKELMIFNGHIMTQDDMEDMMKNMPDGMEMYRYKVEDNKGKIDKVRRMRMKPS [r1_304_TrROS]”, the “folding stability dG unfold” value in series [1] is -0.102 ± 0.57 kcal/mol; in series [2], less than -1 kcal/mol.

Regarding “SAAKPVVIEVGFDGKPVTVVVYPNPGRVRAYVPATNAVSEATVGEDGEVNLLLYNPADGKPLPANITVPSAG [r14_656_TrMRF]”, the “folding stability dG unfold” value in series [1] is -0.973 ± 0.39 kcal/mol; in series [2], less than -1 kcal/mol.

Take “SADKEAVRKIAEKFMQEPGFEPRGISPDGHIMFRPPGQGRMYRIDIDVEKDNDGLDVKIPDIEPVPMPDSAG [r14_20_TrROS]”: the “folding stability dG unfold” value in series [1] was -0.0277 ± 0.31 kcal/mol; in series [2], less than -1 kcal/mol.

With “SAGDYDVEKDPDGYRVEHKNGDKRYVPPVPPPIPVVMIPIKDPEDLDEFANELGLNITDISDDWITMPASAG [r5_328_TrROS]”, the “folding stability dG unfold” value in series [1] was 0.422 ± 0.13 kcal/mol; in series [2] it was -0.158 ± 0.27 kcal/mol.

In the case of “SAGGAKVTEVKVENGYVTVTVDGKLVAKAPPPPPPPKVRVRNADGEEEERSLEDLLAENPENLEIELESAGG [r13_802_TrROS_Hall]”, the “folding stability dG unfold” value in series [1] is 0.359 ± 0.1 kcal/mol; in series [2] it was -0.0384 ± 0.28 kcal/mol.

“SAGGAPDIPILTASYSPDGVLYSSTTTPINGTLHYFPEDNPVVLATDPATGLTVPVGTLEDVKRLIASAGGS [r8_232_TrMRF]”: the “folding stability dG unfold” value in series [1] is 0.208 ± 0.14 kcal/mol; in series [2], -0.37 ± 0.19 kcal/mol.

On to “SAGGAPIPTVSTRTTPLPGGSSRTTTTTTYTFPETGTVYTATTTTTASPGGSPTTTATTTTTALAAASAGGS [r16_113_JUSTAS]”, for which the “folding stability dG unfold” value in series [1] was 0.0663 ± 0.26 kcal/mol; in series [2], -0.507 ± 0.23 kcal/mol.

Take “SAGGAPLAERTEPLPDGRTVRRVLEYDPEKRTVRVRTERWAPDGAAEPAEEVLDVPESATSPEFLLASAGGS [r8_461_JUSTAS]”: the results for the “folding stability dG unfold” value in series [1] and in series [2] were -0.606 ± 0.21 kcal/mol and less than -1 kcal/mol, respectively.

Turning to “SAGGAPVHLDTTATTIEPLPTGGPVLRVETRFPDGSTRTGDFASREELLARLEASPDAATIRLAAVASAGGS [r16_757_JUSTAS]”, the “folding stability dG unfold” value worked out at 0.896 ± 0.056 kcal/mol in series [1] and 0.203 ± 0.096 kcal/mol in series [2].

On to “SAGGDARVARARIRLTRPFPDEDGVVRWEPVVPPGDPVEVGLVLEDDTLVANAVFDGRPVLATVRLESAGGS [r16_500_TrMRF]”, for which the “folding stability dG unfold” value was -0.407 ± 0.27 kcal/mol in series [1] and less than -1 kcal/mol in series [2].

For “SAGGDPEEQNKMMERMEKMKPIEPEPVRIPNGIEIEYWPAYGFVEIETWYRDPDGEPKPIGEGWVPVSAGGS [r16_243_TrROS]”, the “folding stability dG unfold” value in series [1] is 0.286 ± 0.094 kcal/mol; in series [2] it was -0.147 ± 0.12 kcal/mol.

On to “SAGGEPGVSAEEAAERLRRELGLPGLERVLEVRLTRAVGDPAGRPPEAESLEVEVEVSPEVRERLAALSAGG [r13_552_JUSTAS]”, for which the figures for the “folding stability dG unfold” value in series [1] and in series [2] were 0.599 ± 0.051 kcal/mol and 0.00798 ± 0.068 kcal/mol, respectively.

“SAGGEPRLGRVLLDIDIAVDPERAEREEDREEALERALEIAERAEARLRELDPDVPVVVNIRLLDVGSAGGS [r8_183_TrMRF]”: the “folding stability dG unfold” value came out at 0.576 ± 0.031 kcal/mol in series [1] and 0.31 ± 0.17 kcal/mol in series [2].

For “SAGGEVPVSAEAAAAYDRAVAEGGGGATVPVETPGGRVIVYDPAGTATVLGDDPRTFPLAEVTAFAPSAGGS [r16_664_JUSTAS]”, the “folding stability dG unfold” value was determined as 0.923 ± 0.059 kcal/mol in series [1] and 0.246 ± 0.072 kcal/mol in series [2].

Regarding “SAGGGMGSSMKAKVEEEIPELKAADSTKVEITVTVTETRSFALPGGELATTTTTTTKTLEVEVPEEESAGGS [r8_203_JUSTAS]”, the “folding stability dG unfold” value in series [1] was 0.208 ± 0.26 kcal/mol; in series [2] it was -0.217 ± 0.34 kcal/mol.

In the case of “SAGGGMSLTTTTLTFSIDEVDPEELYEELSKKGVTVYSGGKPSNPEEGMEALLKAHPNSSYTVLTRLSAGGS [r8_38_JUSTAS]”, the “folding stability dG unfold” value is -0.483 ± 0.54 kcal/mol in series [1] and less than -1 kcal/mol in series [2].

As to “SAGGGPMPKPVEEVVEEEEDGLRVTTRITYLPTSSTTVVRTTRTVFDPRNGRPLETEELTETVPPGSSAGGS [r16_709_JUSTAS]”, the “folding stability dG unfold” value was -0.0368 ± 0.23 kcal/mol in series [1] and -0.181 ± 0.22 kcal/mol in series [2].

As to “SAGGGSKVIKVEYEKKDGGKVFIDDITDPGDSVEASIFNPKTGVKIPLPFDKLEELEDFIKEFVDKYSAGGS [r16_736_TrMRF]”, the results for the “folding stability dG unfold” value in series [1] and in series [2] were -0.154 ± 0.32 kcal/mol and less than -1 kcal/mol, respectively.

For “SAGGGSMYDPETGTLRDENGNFFRTEEKKIPEVVIELPIELPDNTTLVIPVKFRTEEEAEKAVEELLSAGGS [r8_440_JUSTAS]”, the “folding stability dG unfold” value was 0.0268 ± 0.23 kcal/mol in series [1] and -0.191 ± 0.33 kcal/mol in series [2].

In the case of “SAGGGVTLTVDVRSKSGGSPEKFTLTLPVAVDPAGSADLDAARAAVAAALPPEAEVLELSLLPPDVPASAGG [r13_504_JUSTAS]”, the “folding stability dG unfold” value is 0.346 ± 0.17 kcal/mol in series [1] and less than -1 kcal/mol in series [2].

In the case of “SAGGKKEYKILITGKSIPSDGIVYLPNPNKVNIKSNNNYTYKTIPITIIADNNPEKAKKIAKELGLGSAGGS [r16_467_TrMRF]”, the “folding stability dG unfold” value in series [1] was 0.232 ± 0.34 kcal/mol; in series [2] it was less than -1 kcal/mol.
